In patent publication US7119077B1, “Multimeric forms of members of the steroid/thyroid superfamily of receptors with the ultraspiracle receptor” (The Salk Institute for Biological Studies, priority 1990, dated 2006):

Legend:
[1] = target: T1, Ecdysone receptor (EcR) (Drosophila melanogaster, UniProt P34021 P34021:1-878); assay: EMSA; EcR alone; details: label: 32P
T1 sequence: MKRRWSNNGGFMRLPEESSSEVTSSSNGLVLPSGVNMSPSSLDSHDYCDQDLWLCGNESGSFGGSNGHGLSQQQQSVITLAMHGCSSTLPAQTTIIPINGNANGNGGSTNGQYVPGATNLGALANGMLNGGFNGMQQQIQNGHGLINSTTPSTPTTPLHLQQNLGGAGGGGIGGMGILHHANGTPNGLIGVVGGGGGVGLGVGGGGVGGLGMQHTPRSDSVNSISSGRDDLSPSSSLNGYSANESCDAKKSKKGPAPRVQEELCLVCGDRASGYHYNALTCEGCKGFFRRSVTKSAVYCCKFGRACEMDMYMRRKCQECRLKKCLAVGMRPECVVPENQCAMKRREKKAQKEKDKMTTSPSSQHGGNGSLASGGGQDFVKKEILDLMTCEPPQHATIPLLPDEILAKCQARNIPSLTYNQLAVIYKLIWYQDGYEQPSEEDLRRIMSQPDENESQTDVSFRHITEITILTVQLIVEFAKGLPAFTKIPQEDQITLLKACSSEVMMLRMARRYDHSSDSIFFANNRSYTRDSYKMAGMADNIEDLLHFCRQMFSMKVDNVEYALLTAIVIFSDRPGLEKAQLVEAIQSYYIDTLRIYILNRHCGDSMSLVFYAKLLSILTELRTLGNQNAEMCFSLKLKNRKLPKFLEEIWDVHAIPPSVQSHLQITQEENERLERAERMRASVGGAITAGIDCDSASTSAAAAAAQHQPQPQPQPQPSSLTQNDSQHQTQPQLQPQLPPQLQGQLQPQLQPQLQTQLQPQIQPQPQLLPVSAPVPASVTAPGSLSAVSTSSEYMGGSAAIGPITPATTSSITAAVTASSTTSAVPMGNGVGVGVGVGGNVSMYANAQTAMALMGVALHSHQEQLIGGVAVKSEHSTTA
Procedure: (§1) For gel mobility shift assay, proteins were incubated with binding buffer, which contained 100 mM KCl, 7.5% glycerol, 20 mM HEPES pH 7.5, 2 mM DTT and 0.1% NP-40, on ice for 20 minutes in the presence of 2 μg of nonspecific competitor poly dI-dC and other oligo competitors. Then approximately 1 ng of ^32P-dCTP probe, which was labelled to specific activity about 1-5×10^8 cpm/μg by fill-in reaction with Klenow fragments, was added to the reaction and incubated at room temperature for 20 minutes. Antiserum or preimmune serum was added 10 minutes after the probe was added. The reaction was then loaded into 5% non-denaturing polyacrylamide gel in 0.5×TBE running buffer [1×TBE comprises 0.089 M Tris borate, 0.089 M boric acid and 0.002 M EDTA]. After electrophoresis, the gel was dried for autoradiography.
(§2) The EcR and usp interaction was also tested under more defined conditions. In vitro translated EcR and usp were prepared and their interaction was assayed by gel mobility shift assays. […] To test whether usp can complement EcR DNA binding, as it does with mammalian receptors, both usp and EcR were co-incubated in the reaction. In the presence of both receptors, a novel high affinity DNA binding complex appeared. […] This complex is proposed to be a heterodimeric species, which is consistent with the observation of other usp heterodimers.

[2] = target: T2, EcR/usp heterodimer (Drosophila melanogaster, UniProt P34021;P20153 P34021:1-878,P20153:1-508); assay: EMSA; high affinity complex; usp antibody supershift; details: label: 32P
T2 sequence 1: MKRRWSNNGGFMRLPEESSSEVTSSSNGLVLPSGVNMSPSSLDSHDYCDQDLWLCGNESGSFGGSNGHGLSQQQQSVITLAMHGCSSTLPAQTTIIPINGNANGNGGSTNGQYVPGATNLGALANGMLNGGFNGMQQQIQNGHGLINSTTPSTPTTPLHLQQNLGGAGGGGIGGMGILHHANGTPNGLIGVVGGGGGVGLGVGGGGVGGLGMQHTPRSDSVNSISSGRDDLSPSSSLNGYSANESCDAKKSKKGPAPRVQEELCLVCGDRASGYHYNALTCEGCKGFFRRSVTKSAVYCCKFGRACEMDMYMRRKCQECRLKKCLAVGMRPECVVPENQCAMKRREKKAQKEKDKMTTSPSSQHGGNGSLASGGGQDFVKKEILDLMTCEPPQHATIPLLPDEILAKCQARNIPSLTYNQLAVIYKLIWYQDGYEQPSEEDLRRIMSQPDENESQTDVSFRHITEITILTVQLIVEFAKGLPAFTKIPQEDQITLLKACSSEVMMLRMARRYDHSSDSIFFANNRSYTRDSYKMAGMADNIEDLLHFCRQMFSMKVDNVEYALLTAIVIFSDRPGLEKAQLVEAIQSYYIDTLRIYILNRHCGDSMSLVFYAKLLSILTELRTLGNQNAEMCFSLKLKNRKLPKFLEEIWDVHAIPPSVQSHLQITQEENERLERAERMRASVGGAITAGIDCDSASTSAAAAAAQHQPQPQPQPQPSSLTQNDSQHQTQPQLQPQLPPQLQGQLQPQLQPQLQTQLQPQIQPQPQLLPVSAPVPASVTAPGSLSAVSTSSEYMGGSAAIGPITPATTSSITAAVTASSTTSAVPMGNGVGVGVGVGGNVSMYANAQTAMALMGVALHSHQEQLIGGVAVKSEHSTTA
T2 sequence 2: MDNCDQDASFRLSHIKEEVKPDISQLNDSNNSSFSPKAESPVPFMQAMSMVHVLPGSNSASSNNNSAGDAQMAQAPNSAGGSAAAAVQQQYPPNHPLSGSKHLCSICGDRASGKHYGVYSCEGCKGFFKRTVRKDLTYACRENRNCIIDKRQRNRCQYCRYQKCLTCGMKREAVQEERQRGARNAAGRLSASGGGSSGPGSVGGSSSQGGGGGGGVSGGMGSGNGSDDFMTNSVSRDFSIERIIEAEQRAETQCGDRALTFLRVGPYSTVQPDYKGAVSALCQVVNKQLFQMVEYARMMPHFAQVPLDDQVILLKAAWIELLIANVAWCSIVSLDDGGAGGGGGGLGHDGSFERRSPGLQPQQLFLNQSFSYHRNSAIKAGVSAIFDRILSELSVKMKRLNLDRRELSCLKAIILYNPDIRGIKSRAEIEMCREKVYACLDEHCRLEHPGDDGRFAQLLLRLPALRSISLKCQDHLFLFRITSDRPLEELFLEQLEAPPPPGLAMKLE
Procedure: as §1, §2

[3] = target: T3, ultraspiracle (usp) (Drosophila melanogaster, UniProt P20153 SEQ:1-513); assay: EMSA; usp alone; details: label: 32P
T3 sequence: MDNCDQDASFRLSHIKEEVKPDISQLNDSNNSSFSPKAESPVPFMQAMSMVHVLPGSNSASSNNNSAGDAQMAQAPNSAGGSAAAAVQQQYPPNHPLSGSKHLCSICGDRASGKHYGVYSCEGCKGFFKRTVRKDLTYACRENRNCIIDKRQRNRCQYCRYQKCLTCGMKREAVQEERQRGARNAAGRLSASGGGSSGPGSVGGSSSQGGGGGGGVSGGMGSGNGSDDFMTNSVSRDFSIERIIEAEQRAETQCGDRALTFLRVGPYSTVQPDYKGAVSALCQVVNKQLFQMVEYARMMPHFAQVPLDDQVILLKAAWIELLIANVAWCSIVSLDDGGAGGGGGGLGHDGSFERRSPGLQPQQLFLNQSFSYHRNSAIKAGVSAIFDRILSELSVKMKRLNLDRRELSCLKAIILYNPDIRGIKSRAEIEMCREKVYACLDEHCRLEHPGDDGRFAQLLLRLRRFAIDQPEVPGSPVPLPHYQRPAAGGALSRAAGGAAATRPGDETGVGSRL
Procedure: as §1, §2

[4] = target: T2, EcR/usp heterodimer; assay: competition; competes as effectively as hsp27-EcRE
[5] = target: T4, usp/TRβ heterodimer (Drosophila melanogaster / Homo sapiens, UniProt P20153;P10828 P20153:1-508,P10828:1-461); assay: EMSA; usp dependent; usp antibody supershift; details: label: 32P
T4 sequence 1: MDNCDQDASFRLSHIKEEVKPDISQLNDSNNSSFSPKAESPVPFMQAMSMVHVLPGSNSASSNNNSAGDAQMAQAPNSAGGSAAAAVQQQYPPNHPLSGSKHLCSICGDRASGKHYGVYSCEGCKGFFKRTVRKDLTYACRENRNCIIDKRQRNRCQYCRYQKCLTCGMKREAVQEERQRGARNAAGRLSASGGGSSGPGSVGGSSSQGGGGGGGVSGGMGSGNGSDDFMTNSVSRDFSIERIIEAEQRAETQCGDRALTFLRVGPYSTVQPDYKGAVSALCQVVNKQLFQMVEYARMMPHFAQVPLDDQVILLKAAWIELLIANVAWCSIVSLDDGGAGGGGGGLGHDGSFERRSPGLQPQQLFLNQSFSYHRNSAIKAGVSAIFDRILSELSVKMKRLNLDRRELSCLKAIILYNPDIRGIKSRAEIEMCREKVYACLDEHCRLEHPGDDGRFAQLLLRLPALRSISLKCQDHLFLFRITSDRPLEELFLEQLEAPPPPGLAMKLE
T4 sequence 2: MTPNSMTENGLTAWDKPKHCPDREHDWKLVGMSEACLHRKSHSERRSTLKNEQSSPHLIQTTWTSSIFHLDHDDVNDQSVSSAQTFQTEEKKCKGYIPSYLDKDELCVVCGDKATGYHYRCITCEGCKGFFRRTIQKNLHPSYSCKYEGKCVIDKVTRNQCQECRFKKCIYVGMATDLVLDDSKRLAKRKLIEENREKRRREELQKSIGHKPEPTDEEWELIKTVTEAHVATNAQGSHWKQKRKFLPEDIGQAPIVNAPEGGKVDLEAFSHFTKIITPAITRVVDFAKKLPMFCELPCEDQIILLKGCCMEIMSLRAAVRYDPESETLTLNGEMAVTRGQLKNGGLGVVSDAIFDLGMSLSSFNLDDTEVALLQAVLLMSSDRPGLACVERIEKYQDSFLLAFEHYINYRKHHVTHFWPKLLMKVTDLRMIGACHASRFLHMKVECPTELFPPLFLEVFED
Procedure: as §1
Using in vitro translated usp protein, interaction of usp with three mammalian nuclear receptors (TRβ, VDR and PPAR) was tested in gel mobility shift assays with the appropriate response element for each of the three receptors as the probes.

B1: hsp27-EcRE (dsDNA)
DNA 1: ATTGGACAAGTGCATTGAACCCTTGTCTCT
DNA 2: AGAGACAAGGGTTCAATGCACTTGTCCAAT
[1]
  binding result: no binding
[2]
  binding result: binds
[3]
  binding result: no binding

B2: Eip28/29-EcRE (dsDNA)
DNA 1: TAAAGGATCTTGACCCCAATGAACTTCTTA
DNA 2: TAAGAAGTTCATTGGGGTCAAGATCCTTTA
[4]
  binding result: binds

B3: MLV-TRE (DR4) (dsDNA)
DNA 1: GGGTCATTTCAGGTCC
DNA 2: GGACCTGAAATGACCC
[5]
  binding result: binds
